According to paper doi:10.1101/2025.03.13.642734:

Molecular target: ExsA-His6 (Pseudomonas aeruginosa) (UniProt P26993)
Chain of UniProt P26993 (P26993 whole entry): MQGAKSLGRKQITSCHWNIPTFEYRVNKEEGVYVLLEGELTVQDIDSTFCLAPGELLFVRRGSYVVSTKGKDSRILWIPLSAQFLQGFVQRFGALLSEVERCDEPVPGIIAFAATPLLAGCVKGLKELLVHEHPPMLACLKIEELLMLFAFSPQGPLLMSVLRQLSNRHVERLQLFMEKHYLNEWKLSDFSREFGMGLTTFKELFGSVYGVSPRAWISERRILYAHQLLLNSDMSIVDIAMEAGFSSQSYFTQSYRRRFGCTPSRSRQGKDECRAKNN

GST-Dap2 (natural protein)
EMSA: ExsA-exsC promoter DNA complex with increasing concentrations of GST-Dap2: 1 µM
